Among the data in patent US20180371100A1 (Kyowa Kirin, published 2018) are EC50 values, retold here.

This test addresses T1, FLAG fusion human CRTH2 (human, UniProt Q9Y5Y4 1-395).
T1 construct: Expressed on rat 3Y1-B cells; also called human CRTH2 with a C terminal to which a FLAG tag was added; not shown: FLAG tag at the C terminal
T1 sequence: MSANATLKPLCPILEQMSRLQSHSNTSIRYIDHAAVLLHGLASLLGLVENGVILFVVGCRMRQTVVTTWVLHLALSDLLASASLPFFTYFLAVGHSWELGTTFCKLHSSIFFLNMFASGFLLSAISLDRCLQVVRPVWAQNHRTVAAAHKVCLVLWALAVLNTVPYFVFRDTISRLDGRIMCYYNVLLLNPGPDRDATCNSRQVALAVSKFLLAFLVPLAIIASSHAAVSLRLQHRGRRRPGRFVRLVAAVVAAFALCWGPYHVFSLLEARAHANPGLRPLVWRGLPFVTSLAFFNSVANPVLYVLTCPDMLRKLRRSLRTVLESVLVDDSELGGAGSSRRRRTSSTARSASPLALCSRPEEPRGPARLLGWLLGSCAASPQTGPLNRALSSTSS
Kind of test: flow cytometry on FLAG fusion human CRTH2-expressing 3Y1-B cells; logistic fit of Geomean; ± is the standard error. The method, then:
FLAG fusion human CRTH2-expressing 3Y1-B cells were peeled using a 0.25% trypsin-EDTA (NACALAI TESQUE, Inc.), washed with PBS, and suspended with SM. Next, the cells were seeded in a 96-well plate such that one well has 1×10⁵ cells. Further, chLym2 or each of the humanized Lym2 antibodies was added at each final concentrations of 50000, 12500, 3125, 781, 195, 49, 12, and 3 ng/mL to cause a reaction at 4° C. for 60 minutes.
After the cells were washed with SM, Goat F(ab′)₂ Anti-Human IgG PE (γchain specific) (Southern Biotech Inc.) diluted 500 times with SM was added to cause a reaction at 4° C. for 60 minutes. The cells were washed with SM and resuspended with 50 μL of SM, and the fluorescent intensity was measured by flow cytometry (BD Biosciences, FACS CantoII).
The data was analyzed by FLowJo 7.65 (Tomy Digital Biology Co., Ltd.), curve fitting of the Geomean value in each concentration was performed using a Logistic curve, and the 50% effective concentration (EC₅₀) value of the binding of chLym2 and each humanized Lym2 antibody and the standard error (SE) value thereof were calculated using R language (Ver. 3.02) which is a language for statistical analysis.
(Flow cytometry measures light scatter and fluorescence of single cells or particles in a stream.)

Several values for one entry are separate records, joined by “and”; a condition that tells them apart may be missing. Equal entries are not always repeated.

B1: humanized Lym2 antibody LV0HV0 (antibody, V domains shown)
VH: EVQLVESGGGVVQPGRSLRLSCAASGFTFSNYYMAWVRQAPGKGLEWVATISYDGSSTYYRDSVKGRFTISRDNAKNSLYLQMNSLRAEDTAVYYCARHRGYYYSGAGYFDYWGQGTMVTVSS
VL: DIVMTQTPLSLPVTPGESASISCRSSQSLEYSDGYTYLEWYLQKPGQSPQVLIYGVSNRFSGVPDRFSGSGSGTDFTLKISRVEAEDVGVYYCFQATHDPLTFGQGTKLEIK
As a reminder, the EC50 is the concentration that produces a half-maximal response. A lower EC50 goes with a more potent agent. Consider B1, for which the EC50 was 0.55 µg/mL and 0.87 µg/mL.

B2: humanized Lym2 antibody LV0HV3 (antibody, V domains shown)
VH: EVQLVESGGGVVQPGRSMRLSCAASGFTFSNYYMAWVRQAPGKGLEWVATISYDGSSTYYRDSVKGRFTISRDNAKNSLYLQMNSLRAEDTATYYCARHRGYYYSGAGYFDYWGQGVMVTVSS
VL: DIVMTQTPLSLPVTPGESASISCRSSQSLEYSDGYTYLEWYLQKPGQSPQVLIYGVSNRFSGVPDRFSGSGSGTDFTLKISRVEAEDVGVYYCFQATHDPLTFGQGTKLEIK
Regarding B2, the EC50 was determined as 0.69 µg/mL.

B3: humanized Lym2 antibody LV2cHV0 (antibody, V domains shown)
VH: EVQLVESGGGVVQPGRSLRLSCAASGFTFSNYYMAWVRQAPGKGLEWVATISYDGSSTYYRDSVKGRFTISRDNAKNSLYLQMNSLRAEDTAVYYCARHRGYYYSGAGYFDYWGQGTMVTVSS
VL: DVVLTQTPLSLPVTPGESASISCRSSQSLEYSDGYTYLEWYLQKPGQSPQVLIYGVSNRFSGVPDRFSGSGSGTDFTLKISRVEAEDVGVYYCFQATHDPLTFGQGTKLEIK
The molecule B3 had an EC50 of 0.68 µg/mL.

B4: humanized Lym2 antibody LV1HV0 (antibody, V domains shown)
VH: EVQLVESGGGVVQPGRSLRLSCAASGFTFSNYYMAWVRQAPGKGLEWVATISYDGSSTYYRDSVKGRFTISRDNAKNSLYLQMNSLRAEDTAVYYCARHRGYYYSGAGYFDYWGQGTMVTVSS
VL: DIVMTQTPLSLPVTLGESASISCRSSQSLEYSDGYTYLEWYLQKPGQSPQVLIYGVSNRFSGVPDRFSGSGSGTDFTLKISRVEAEDVGVYYCFQATHDPLTFGQGTKLEIK
Take B4: the EC50 worked out at 0.69 µg/mL.

B5: humanized Lym2 antibody LV0HV4 (antibody, V domains shown)
VH: EVQLVESGGGVVQPGRSMRLSCAASGFTFSNYYMAWVRQAPGKGLEWVATISYDGSSTYYRDSVKGRFTISRDNAKSSLYLQMNSLRAEDTATYYCARHRGYYYSGAGYFDYWGQGVMVTVSS
VL: DIVMTQTPLSLPVTPGESASISCRSSQSLEYSDGYTYLEWYLQKPGQSPQVLIYGVSNRFSGVPDRFSGSGSGTDFTLKISRVEAEDVGVYYCFQATHDPLTFGQGTKLEIK
As for B5, the EC50 is 0.58 µg/mL and 0.67 µg/mL.

B6: humanized Lym2 antibody LV2bHV4 (antibody, V domains shown)
VH: EVQLVESGGGVVQPGRSMRLSCAASGFTFSNYYMAWVRQAPGKGLEWVATISYDGSSTYYRDSVKGRFTISRDNAKSSLYLQMNSLRAEDTATYYCARHRGYYYSGAGYFDYWGQGVMVTVSS
VL: DIVMTQTPLSLPVTLGESASISCRSSQSLEYSDGYTYLEWYLQKPGQSPQVLIYGVSNRFSGVPDRFSGSGSGTDFTLKISRVEPEDVGVYYCFQATHDPLTFGQGTKLEIK
As for B6, the EC50 stood at 0.59 µg/mL.

B7: humanized Lym2 antibody LV2cHV4 (antibody, V domains shown)
VH: EVQLVESGGGVVQPGRSMRLSCAASGFTFSNYYMAWVRQAPGKGLEWVATISYDGSSTYYRDSVKGRFTISRDNAKSSLYLQMNSLRAEDTATYYCARHRGYYYSGAGYFDYWGQGVMVTVSS
VL: DVVLTQTPLSLPVTPGESASISCRSSQSLEYSDGYTYLEWYLQKPGQSPQVLIYGVSNRFSGVPDRFSGSGSGTDFTLKISRVEAEDVGVYYCFQATHDPLTFGQGTKLEIK
As to B7, the midpoint of the response, the EC50, lay at 0.54 µg/mL.

B8: humanized Lym2 antibody LV1HV4 (antibody, V domains shown)
VH: EVQLVESGGGVVQPGRSMRLSCAASGFTFSNYYMAWVRQAPGKGLEWVATISYDGSSTYYRDSVKGRFTISRDNAKSSLYLQMNSLRAEDTATYYCARHRGYYYSGAGYFDYWGQGVMVTVSS
VL: DIVMTQTPLSLPVTLGESASISCRSSQSLEYSDGYTYLEWYLQKPGQSPQVLIYGVSNRFSGVPDRFSGSGSGTDFTLKISRVEAEDVGVYYCFQATHDPLTFGQGTKLEIK
B8 displayed an EC50 of 0.58 µg/mL.

B9: humanized Lym2 antibody LV4HV0 (antibody, V domains shown)
VH: EVQLVESGGGVVQPGRSLRLSCAASGFTFSNYYMAWVRQAPGKGLEWVATISYDGSSTYYRDSVKGRFTISRDNAKNSLYLQMNSLRAEDTAVYYCARHRGYYYSGAGYFDYWGQGTMVTVSS
VL: DVVLTQTPLSLPVTLGESASISCRSSQSLEYSDGYTYLEWYLQKPGQSPQVLIYGVSNRFSGVPDRFSGSGSGTDFTLKISRVEPEDVGVYYCFQATHDPLTFGQGTKLEIK
In the case of B9, the EC50 came out at 0.74 µg/mL.

B10: humanized Lym2 antibody LV2bHV0 (antibody, V domains shown)
VH: EVQLVESGGGVVQPGRSLRLSCAASGFTFSNYYMAWVRQAPGKGLEWVATISYDGSSTYYRDSVKGRFTISRDNAKNSLYLQMNSLRAEDTAVYYCARHRGYYYSGAGYFDYWGQGTMVTVSS
VL: DIVMTQTPLSLPVTLGESASISCRSSQSLEYSDGYTYLEWYLQKPGQSPQVLIYGVSNRFSGVPDRFSGSGSGTDFTLKISRVEPEDVGVYYCFQATHDPLTFGQGTKLEIK
As for B10, the EC50 stood at 0.67 µg/mL.

B11: humanized Lym2 antibody LV2aHV0 (antibody, V domains shown)
VH: EVQLVESGGGVVQPGRSLRLSCAASGFTFSNYYMAWVRQAPGKGLEWVATISYDGSSTYYRDSVKGRFTISRDNAKNSLYLQMNSLRAEDTAVYYCARHRGYYYSGAGYFDYWGQGTMVTVSS
VL: DIVLTQTPLSLPVTLGESASISCRSSQSLEYSDGYTYLEWYLQKPGQSPQVLIYGVSNRFSGVPDRFSGSGSGTDFTLKISRVEAEDVGVYYCFQATHDPLTFGQGTKLEIK
Molecule B11 gave an EC50 of 0.66 µg/mL.

B12: humanized Lym2 antibody LV3bHV4 (antibody, V domains shown)
VH: EVQLVESGGGVVQPGRSMRLSCAASGFTFSNYYMAWVRQAPGKGLEWVATISYDGSSTYYRDSVKGRFTISRDNAKSSLYLQMNSLRAEDTATYYCARHRGYYYSGAGYFDYWGQGVMVTVSS
VL: DVVLTQTPLSLPVTLGESASISCRSSQSLEYSDGYTYLEWYLQKPGQSPQVLIYGVSNRFSGVPDRFSGSGSGTDFTLKISRVEAEDVGVYYCFQATHDPLTFGQGTKLEIK
Turning to B12, the EC50 was determined as 0.53 µg/mL.

B13: humanized Lym2 antibody LV0HV2a (antibody, V domains shown)
VH: EVQLVESGGGVVQPGRSLRLSCAASGFTFSNYYMAWVRQAPGKGLEWVATISYDGSSTYYRDSVKGRFTISRDNAKNSLYLQMNSLRAEDTATYYCARHRGYYYSGAGYFDYWGQGVMVTVSS
VL: DIVMTQTPLSLPVTPGESASISCRSSQSLEYSDGYTYLEWYLQKPGQSPQVLIYGVSNRFSGVPDRFSGSGSGTDFTLKISRVEAEDVGVYYCFQATHDPLTFGQGTKLEIK
Consider B13, for which it took 0.65 µg/mL to reach a half-maximal effect (EC50).

B14: humanized Lym2 antibody LV2aHV4 (antibody, V domains shown)
VH: EVQLVESGGGVVQPGRSMRLSCAASGFTFSNYYMAWVRQAPGKGLEWVATISYDGSSTYYRDSVKGRFTISRDNAKSSLYLQMNSLRAEDTATYYCARHRGYYYSGAGYFDYWGQGVMVTVSS
VL: DIVLTQTPLSLPVTLGESASISCRSSQSLEYSDGYTYLEWYLQKPGQSPQVLIYGVSNRFSGVPDRFSGSGSGTDFTLKISRVEAEDVGVYYCFQATHDPLTFGQGTKLEIK
B14 yielded an EC50 of 0.51 µg/mL.

B15: humanized Lym2 antibody LV3aHV0 (antibody, V domains shown)
VH: EVQLVESGGGVVQPGRSLRLSCAASGFTFSNYYMAWVRQAPGKGLEWVATISYDGSSTYYRDSVKGRFTISRDNAKNSLYLQMNSLRAEDTAVYYCARHRGYYYSGAGYFDYWGQGTMVTVSS
VL: DVVLTQTPLSLPVTPGESASISCRSSQSLEYSDGYTYLEWYLQKPGQSPQVLIYGVSNRFSGVPDRFSGSGSGTDFTLKISRVEPEDVGVYYCFQATHDPLTFGQGTKLEIK
As to B15, the EC50 turned out to be 0.7 µg/mL.

B16: humanized Lym2 antibody LV3aHV4 (antibody, V domains shown)
VH: EVQLVESGGGVVQPGRSMRLSCAASGFTFSNYYMAWVRQAPGKGLEWVATISYDGSSTYYRDSVKGRFTISRDNAKSSLYLQMNSLRAEDTATYYCARHRGYYYSGAGYFDYWGQGVMVTVSS
VL: DVVLTQTPLSLPVTPGESASISCRSSQSLEYSDGYTYLEWYLQKPGQSPQVLIYGVSNRFSGVPDRFSGSGSGTDFTLKISRVEPEDVGVYYCFQATHDPLTFGQGTKLEIK
B16 gave an EC50 of 0.76 µg/mL.

B17: humanized Lym2 antibody LV0HV2b (antibody, V domains shown)
VH: EVQLVESGGGVVQPGRSMRLSCAASGFTFSNYYMAWVRQAPGKGLEWVATISYDGSSTYYRDSVKGRFTISRDNAKNSLYLQMNSLRAEDTAVYYCARHRGYYYSGAGYFDYWGQGVMVTVSS
VL: DIVMTQTPLSLPVTPGESASISCRSSQSLEYSDGYTYLEWYLQKPGQSPQVLIYGVSNRFSGVPDRFSGSGSGTDFTLKISRVEAEDVGVYYCFQATHDPLTFGQGTKLEIK
For B17, the response was half-maximal at 0.72 µg/mL (EC50).

B18: humanized Lym2 antibody LV3bHV0 (antibody, V domains shown)
VH: EVQLVESGGGVVQPGRSLRLSCAASGFTFSNYYMAWVRQAPGKGLEWVATISYDGSSTYYRDSVKGRFTISRDNAKNSLYLQMNSLRAEDTAVYYCARHRGYYYSGAGYFDYWGQGTMVTVSS
VL: DVVLTQTPLSLPVTLGESASISCRSSQSLEYSDGYTYLEWYLQKPGQSPQVLIYGVSNRFSGVPDRFSGSGSGTDFTLKISRVEAEDVGVYYCFQATHDPLTFGQGTKLEIK
Turning to B18, the midpoint of the response, the EC50, lay at 0.81 µg/mL.
